Consider 3 molecules from patent publication US20060239998A1.

A value given as a limit tells only on which side of the number the result lay.

Assay [1] concerns the target BO2C11 surface antibody on the BO2C11 lymphoblastoid B-cell line. As to the kind of experiment: flow cytometry on the BO2C11 lymphoblastoid cell line, 1 or 10 µg/ml antibody, anti-mouse IgG-FITC. In general terms: Flow cytometry measures light scatter and fluorescence of single cells or particles in a stream.
Assay [2] deals with human monoclonal antibody BO2C11, FVIII-specific IgG4kappa inhibitory antibody against the C2 domain. Briefly: cell-based or functional assay.
Assay [3] has as its target polyclonal antibodies of 6 unrelated patients with haemophilia A and inhibitor towards the C2 domain. Briefly: immunoprecipitation of radiolabelled C2 domain with patient polyclonal antibodies and protein A Sepharose; Ab 14C12 added at increasing concentration.
Assay [4] deals with human monoclonal antibody BO2C11, FVIII-specific IgG4kappa inhibitory antibody against the C2 domain. As to the kind of experiment: surface plasmon resonance. Background: Surface plasmon resonance follows binding to a sensor surface in real time, without labels.
For assay [5], the target named is Factor VIII (human recombinant FVIII) (human) (UniProt P00451). Briefly: cell-based or functional assay.
Sequence of Factor VIII (human recombinant FVIII) (human) (P00451 20-2351): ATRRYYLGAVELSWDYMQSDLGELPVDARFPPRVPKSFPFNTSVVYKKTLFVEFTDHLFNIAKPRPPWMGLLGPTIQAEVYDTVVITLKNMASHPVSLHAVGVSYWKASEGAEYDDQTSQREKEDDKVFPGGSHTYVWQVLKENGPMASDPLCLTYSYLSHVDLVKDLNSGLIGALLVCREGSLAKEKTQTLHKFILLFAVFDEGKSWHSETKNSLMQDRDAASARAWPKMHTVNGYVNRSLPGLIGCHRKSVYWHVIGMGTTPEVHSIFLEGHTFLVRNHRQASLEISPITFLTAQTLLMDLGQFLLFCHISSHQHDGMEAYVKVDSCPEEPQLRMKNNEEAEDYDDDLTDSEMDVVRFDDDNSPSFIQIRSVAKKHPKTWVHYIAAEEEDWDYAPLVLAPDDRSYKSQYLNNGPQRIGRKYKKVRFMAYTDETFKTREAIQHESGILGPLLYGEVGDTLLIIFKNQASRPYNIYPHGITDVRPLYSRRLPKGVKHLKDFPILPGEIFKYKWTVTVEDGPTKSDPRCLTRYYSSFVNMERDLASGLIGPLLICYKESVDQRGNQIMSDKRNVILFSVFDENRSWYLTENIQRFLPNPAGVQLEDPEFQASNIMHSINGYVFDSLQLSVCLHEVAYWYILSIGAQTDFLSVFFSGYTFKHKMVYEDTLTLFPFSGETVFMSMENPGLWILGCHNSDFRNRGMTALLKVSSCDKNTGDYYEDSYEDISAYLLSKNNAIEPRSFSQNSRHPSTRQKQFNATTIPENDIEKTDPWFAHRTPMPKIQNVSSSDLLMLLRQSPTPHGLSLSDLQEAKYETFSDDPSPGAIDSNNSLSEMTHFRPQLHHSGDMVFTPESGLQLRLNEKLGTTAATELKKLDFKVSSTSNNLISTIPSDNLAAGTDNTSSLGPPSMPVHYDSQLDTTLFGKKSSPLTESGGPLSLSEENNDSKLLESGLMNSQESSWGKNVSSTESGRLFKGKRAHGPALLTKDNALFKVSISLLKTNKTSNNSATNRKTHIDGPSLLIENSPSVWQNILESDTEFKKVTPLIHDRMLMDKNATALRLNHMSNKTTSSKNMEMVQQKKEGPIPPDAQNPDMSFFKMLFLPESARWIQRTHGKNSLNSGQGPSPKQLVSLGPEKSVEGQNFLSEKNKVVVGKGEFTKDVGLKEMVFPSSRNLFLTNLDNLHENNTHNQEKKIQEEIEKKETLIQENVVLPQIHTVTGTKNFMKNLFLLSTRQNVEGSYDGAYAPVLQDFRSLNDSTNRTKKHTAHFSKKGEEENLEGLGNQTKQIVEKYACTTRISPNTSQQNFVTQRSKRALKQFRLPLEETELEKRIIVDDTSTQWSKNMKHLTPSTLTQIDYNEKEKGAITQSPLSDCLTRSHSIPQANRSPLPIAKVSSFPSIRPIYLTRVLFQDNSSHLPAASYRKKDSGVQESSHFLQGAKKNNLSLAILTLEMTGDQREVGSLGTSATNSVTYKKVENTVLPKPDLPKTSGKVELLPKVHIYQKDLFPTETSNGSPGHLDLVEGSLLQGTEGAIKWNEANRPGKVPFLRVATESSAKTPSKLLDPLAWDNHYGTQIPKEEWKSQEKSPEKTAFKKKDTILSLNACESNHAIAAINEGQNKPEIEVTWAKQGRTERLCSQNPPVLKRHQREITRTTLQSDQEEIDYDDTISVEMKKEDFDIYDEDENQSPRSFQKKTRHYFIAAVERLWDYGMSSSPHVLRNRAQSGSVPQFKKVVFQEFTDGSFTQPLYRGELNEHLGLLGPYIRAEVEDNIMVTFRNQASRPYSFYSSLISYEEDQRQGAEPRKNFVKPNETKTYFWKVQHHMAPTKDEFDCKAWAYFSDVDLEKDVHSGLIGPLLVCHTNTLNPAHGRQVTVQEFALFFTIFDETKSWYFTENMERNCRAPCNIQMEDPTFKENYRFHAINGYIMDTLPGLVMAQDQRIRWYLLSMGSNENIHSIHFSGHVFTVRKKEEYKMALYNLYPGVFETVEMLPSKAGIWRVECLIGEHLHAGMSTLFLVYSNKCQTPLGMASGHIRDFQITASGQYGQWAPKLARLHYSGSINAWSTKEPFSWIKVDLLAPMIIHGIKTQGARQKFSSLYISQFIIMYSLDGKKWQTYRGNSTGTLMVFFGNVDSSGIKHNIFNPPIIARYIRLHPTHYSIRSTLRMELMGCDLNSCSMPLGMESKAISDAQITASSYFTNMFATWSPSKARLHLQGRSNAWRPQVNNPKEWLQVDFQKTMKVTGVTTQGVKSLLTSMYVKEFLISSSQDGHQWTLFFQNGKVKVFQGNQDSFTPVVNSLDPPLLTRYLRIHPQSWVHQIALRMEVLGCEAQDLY
Assay [6] deals with polyclonal antibodies of the patient from whom BO2C11 was derived. As to the kind of experiment: cell-based or functional assay.

B1: anti-idiotypic antibody Ab 14C12 obtained from cell line 14C12 (LMBP 5878CB) (antibody, V domains shown)
VH: EVQLQQSGPELVKPGASVKLSCKASGYTFTSSVMHWLKQKSGQGLEWIGYINPYNDGTKYNEKFTAKATLTSDKSSSTVYMELSGLTSEDFAVYYCARSGGLLRGYWYFDVWGAGTTVTVSS
VL: DLVLTQSPATLSVTPGDSVSLSCRASQDITNTLHWYHQKSHESPRLLIKYVSQSISGIPSRFSGSGSGTVFTLSINSVETEDFGVYFCQQSTSWPYTFGGGTKLEIKR
In assay [1], B1 yielded a percent of cells positive of 68%. In assay [2], the in vivo neutralisation of BO2C11-mediated FVIII inhibition in FVIII-/- mice (% neutralisation at equimolar ratio) was determined as 50. The neutralisation of BO2C11 inhibitory capacity (chromogenic assay) in assay [2] (scale: % neutralisation at a '11' molar ratio) worked out at 50. Further, in assay [2] (scale: molar excess of Ab 14C12 over BO2C11 for full neutralisation), the in vivo neutralisation of BO2C11-mediated FVIII inhibition in FVIII-/- mice amounted to 3.5. Further, the percent neutralisation in assay [3] worked out at 50%. Further, in assay [4], the koff stood at 1e-05 s⁻¹.

B2: human monoclonal antibody BO2C11, FVIII-specific IgG4kappa inhibitory antibody against the C2 domain (antibody, from another filing, V domains shown)
VH: QVQLVQSGAEVKKPGASVKVSCKVSGYTLTELPVHWVRQAPGKGLEWVGSFDPESGESIYAREFQGSVTMTADTSTDIAYMELSSLRSDDTAVYYCAVPDPDAFDIWGQGTMVTVSS
VL: EIALTQSPGTLSLSPGERATLSCRASQSFSSSYLAWYQQKPGQAPRLLIYGASTRATGIPDRFSGSGSGTDFTLTISRLEPEDFAVYYCQKYGTSAITFGQGTRLEIK
As to B2, in assay [5], the inhibition of FVIII procoagulant activity in FVIII-/- mice (% inhibition at 0.5 µg BO2C11) was determined as 98 and the inhibition of FVIII-dependent substrate conversion (Faktor VIII chromogen test) (% inhibition at 0.1 µg/ml BO2C11) is 100.

B3: anti-idiotypic antibody Ab 14C12 obtained from cell line 14C12 (LMBP 5878CB) (antibody, V domains shown)
VH: EVQLQQSGPELVKPGASVKLSCKASGYTFTSSVMHWLKQKSGQGLEWIGYINPYNDGTKYNEKFTAKATLTSDKSSSTVYMELSGLTSEDFAVYYCARSGGLLRGYWYFDVWGAGTTVTVSSAKTTAPSVYPLVPGC
VL: DLVLTQSPATLSVTPGDSVSLSCRASQDITNTLHWYHQKSHESPRLLIKYVSQSISGIPSRFSGSGSGTVFTLSINSVETEDFGVYFCQQSTSWPYTFGGGTKLEIKRADAAPTVSIFPPSSE
B3 showed a neutralisation of polyclonal anti-FVIII antibodies (chromogenic assay) (% neutralisation) in assay [6] of less than 60.

As a reminder, the koff is a measure of how fast the partners let go of each other.
